The source of these data is US11541126B1, “Anti-ASGR1 antibody TLR8 agonist comprising conjugates and uses thereof” (Silverback Therapeutics, Inc., priority 2020, dated 2023).

Sequences and labels used below:
B1: hzG2D-16: humanized G2D clone; "G2D VL region ... of clones 1-16, 19-21, 26-29, 31, and 33 ... grafted into the human germline sequence VKI-L1 with JK4" (antibody, V domains shown)
VH: QVQLVQSGAEVKKPGASVKVSCKASGYSFTGYYMHWVRQAPGQRLEWMGRINPNNGATNYNQNFKDKASLTVDTSASTAYMELSSLRSEDTAVYYCTSVNFYYWGQGTTLTVSS
VL: DIQMTQSPSSLSASVGDRVTITCKASQVINSYLSWFQQKPGKAPKSLIYRANTLVDGVPSRFSGSGSGTDFTLTISSLQPEDFATYYCLQYAEFPYTFGGGTKVEIK
modifications: Synthetic sequence hzG2.5D VH T28S, R66K, V67A, T68S, I69L, R71V, A93T, R94S, V109L; Synthetic sequence hzG2D VLa
B2: hzG2D-28: humanized G2D clone; "G2D VL region ... of clones 1-16, 19-21, 26-29, 31, and 33 ... grafted into the human germline sequence VKI-L1 with JK4" (antibody, V domains shown)
VH: B1 VH with S28T, L110V
VL: B1 VL with F71Y, T72S
modifications: Synthetic sequence hzG2.47D VH R66K, V67A, T68S, I69L, R71V, A93T, R94S; Synthetic sequence hzG2.5D VLa F71Y, T72S
B3: hzG2D-30: humanized G2D clone; "G2D VL region ... of clones 22, 23, 30, 32, and 34-37 ... grafted into the human germline sequence VKI-O2 with JK4" (antibody, V domains shown)
VH: B1 VH with S28T, R38K, L110V
VL: B1 VL with F36Y, S46L
modifications: Synthetic sequence hzG2.49D VH R38K, R66K, V67A, T68S, I69L, R71V, A93T, R94S; Synthetic sequence hzG2D VLb
B4: hzG2D-23: humanized G2D clone; "G2D VL region ... of clones 22, 23, 30, 32, and 34-37 ... grafted into the human germline sequence VKI-O2 with JK4" (antibody, V domains shown)
VH: B1 VH with S28T, L110V
VL: B1 VL with F36Y, S46L
modifications: Synthetic sequence hzG2.47D VH R66K, V67A, T68S, I69L, R71V, A93T, R94S; Synthetic sequence hzG2D VLb
B5: hzG2D-25: humanized G2D clone; "G2D VL region ... of clones 24 and 25 ... grafted into the human germline sequence VKI-A20 with JK4 to generate hzG2D VLc (SEQ ID NO:249)" (antibody, V domains shown)
VH: B1 VH with S28T, L110V
VL: B1 VL with F36Y, A43V, S46L, F83V
modifications: Synthetic sequence hzG2.47D VH R66K, V67A, T68S, I69L, R71V, A93T, R94S; Synthetic sequence hzG2D VLc
B6: hzG2D-26: humanized G2D clone; "G2D VL region ... of clones 1-16, 19-21, 26-29, 31, and 33 ... grafted into the human germline sequence VKI-L1 with JK4" (antibody, V domains shown)
VH: B1 VH with S28T, L110V
VL: B1 VL with K45E, S46T
modifications: Synthetic sequence hzG2.47D VH R66K, V67A, T68S, I69L, R71V, A93T, R94S; Synthetic sequence hzG2.3D VLa K45E, S46T
B7: hzG2D-24: humanized G2D clone; "G2D VL region ... of clones 24 and 25 ... grafted into the human germline sequence VKI-A20 with JK4 to generate hzG2D VLc (SEQ ID NO:249)" (antibody, V domains shown)
VH: B1 VH with S28T, T97A, S98R, L110V
VL: B1 VL with F36Y, A43V, S46L, F83V
modifications: Synthetic sequence hzG2.46D VH R66K, V67A, T68S, I69L, R71V; Synthetic sequence hzG2D VLc
B8: hzG2D-29: humanized G2D clone; "G2D VL region ... of clones 1-16, 19-21, 26-29, 31, and 33 ... grafted into the human germline sequence VKI-L1 with JK4" (antibody, V domains shown)
VH: B1 VH with S28T, R38K, L110V
VL: B1 VL
modifications: Synthetic sequence hzG2.49D VH R38K, R66K, V67A, T68S, I69L, R71V, A93T, R94S; Synthetic sequence hzG2D VLa
B9: hzG2D-27: humanized G2D clone; "G2D VL region ... of clones 1-16, 19-21, 26-29, 31, and 33 ... grafted into the human germline sequence VKI-L1 with JK4" (antibody, V domains shown)
VH: B1 VH with S28T, L110V
VL: B1 VL with Q79E, P80Y
modifications: Synthetic sequence hzG2.47D VH R66K, V67A, T68S, I69L, R71V, A93T, R94S; Synthetic sequence hzG2.4D VLa Q79E, P80Y
B10: hzG2D-31: humanized G2D clone; "G2D VL region ... of clones 1-16, 19-21, 26-29, 31, and 33 ... grafted into the human germline sequence VKI-L1 with JK4" (antibody, V domains shown)
VH: B1 VH with S28T, L83F, S84H, L110V
VL: B1 VL
modifications: Synthetic sequence hzG2.50D VH R66K, V67A, T68S, I69L, R71V, L82F, S82aH, A93T, R94S; Synthetic sequence hzG2D VLa
B11: hzG2D-22: humanized G2D clone; "G2D VL region ... of clones 22, 23, 30, 32, and 34-37 ... grafted into the human germline sequence VKI-O2 with JK4" (antibody, V domains shown)
VH: B1 VH with S28T, T97A, S98R, L110V
VL: B1 VL with F36Y, S46L
modifications: Synthetic sequence hzG2.46D VH R66K, V67A, T68S, I69L, R71V; Synthetic sequence hzG2D VLb
B12: hzG2D-32: humanized G2D clone; "G2D VL region ... of clones 22, 23, 30, 32, and 34-37 ... grafted into the human germline sequence VKI-O2 with JK4" (antibody, V domains shown)
VH: B1 VH with S28T, L83F, S84H, L110V
VL: B1 VL with F36Y, S46L
modifications: Synthetic sequence hzG2.50D VH R66K, V67A, T68S, I69L, R71V, L82F, S82aH, A93T, R94S; Synthetic sequence hzG2D VLb
B13: hzG2D-21: humanized G2D clone; "G2D VL region ... of clones 1-16, 19-21, 26-29, 31, and 33 ... grafted into the human germline sequence VKI-L1 with JK4" (antibody, V domains shown)
VH: B1 VH with S28T, L110V
VL: B1 VL
modifications: Synthetic sequence hzG2.47D VH R66K, V67A, T68S, I69L, R71V, A93T, R94S; Synthetic sequence hzG2D VLa
B14: G2D-C (antibody, V domains shown)
VH: EVQLQQSGPELVKPGASVKISCKASGYSFTGYYMHWVKQSHVKSLEWIGRINPNNGATNYNQNFKDKASLTVDKSSSTAYMEFHSLTSEDSAVYYCTSVNFYYWGQGTTLTVSS
VL: DIKMTQSPSSMYASLGERVTITCKASQVINSYLSWFQQKPGKSPETLIYRANTLVDGVPSRFSGSGSGQDYSLTISSLEYEDLGIYYCLQYAEFPYTFGGGTKLEIK
modifications: IgG1 kappa constant regions; Synthetic sequence G2D VH; Synthetic sequence G2D VL

Residue numbers refer to the chain shown, from its start. In names and notes the source's numbering stands.

The experiment deals with T1, HepG2 cells (which express ASGR1) (Homo sapiens, UniProt P07306).
T1 construct: endogenous in cells; host or cells: HepG2
T1 sequence (P07306 1-291): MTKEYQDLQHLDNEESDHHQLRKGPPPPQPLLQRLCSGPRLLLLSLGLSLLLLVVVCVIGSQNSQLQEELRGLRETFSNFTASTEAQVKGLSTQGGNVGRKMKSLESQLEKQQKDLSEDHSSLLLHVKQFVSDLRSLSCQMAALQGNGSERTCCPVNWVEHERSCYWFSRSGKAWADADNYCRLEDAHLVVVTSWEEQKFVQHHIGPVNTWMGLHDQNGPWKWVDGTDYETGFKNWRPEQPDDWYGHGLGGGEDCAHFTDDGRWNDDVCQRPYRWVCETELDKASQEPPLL
In words: Guava HepG2 cell binding screen of humanized anti-ASGR1 clones. On the set-up: unit not given here. Conditions: humanized G2D clones (Table 5); two numbers per cell, not explained. How it is done:
Hybridomas producing monoclonal antibodies (mAbs) specific for human ASGR1 were prepared from Balb/C mice immunized with ASGR1-AviHis at a service provider using their propriety protocol. Antibody heavy and light chain sequences were obtained, amplified, and cloned. Clone supernatants containing the expressed mAbs were screened for binding to a human ASGR1-IgG1Fc fusion protein, and those with a positive signal as measured by enzyme linked immunosorbent assay (ELISA) were screened for cell binding on HepG2 cells (which express ASGR1).
On to B1, for which the “Guava HepG2 Screen” value is given as 165/108. The figure for B2 is 145/92; for B3 it is 198/115. Then B4, with 198/131; and B5, with “None”; and B6, with 185/114. In the case of B7, the “Guava HepG2 Screen” value is given as “None”. The figure for B8 is 189/108; for B9 it is 191/116.

As to B10, the “Guava HepG2 Screen” value is 168/95. The entry for B11 is “None”; for B12 it is 167/103. Consider B13, for which the “Guava HepG2 Screen” value is reported as 199/127. As to B14, the “Guava HepG2 Screen” value is on record as 187/145.
